Changes are numbered by the printed parent chain. Values belong to the molecule of their own block, whether it stands above or below them.
What was measured:
[1] = target: a4b7(G629S) (human) (UniProt P13612); assay: FACS on transfected 293 cells, 1 microG/ml, PE anti-human IgG; control
[2] = target: a4(V824A)b7 (human) (UniProt P13612); assay: as above
[3] = target: a4b7(E97V) (human) (UniProt P13612); assay: as above
[4] = target: a4b7(R213S) (human) (UniProt P13612); assay: as above
[5] = target: T1, human alpha4beta7 (human, UniProt P13612 34-1032; P26010 20-798); assay: as above
T1 sequence (P13612 34-1032, chain 1 of 2): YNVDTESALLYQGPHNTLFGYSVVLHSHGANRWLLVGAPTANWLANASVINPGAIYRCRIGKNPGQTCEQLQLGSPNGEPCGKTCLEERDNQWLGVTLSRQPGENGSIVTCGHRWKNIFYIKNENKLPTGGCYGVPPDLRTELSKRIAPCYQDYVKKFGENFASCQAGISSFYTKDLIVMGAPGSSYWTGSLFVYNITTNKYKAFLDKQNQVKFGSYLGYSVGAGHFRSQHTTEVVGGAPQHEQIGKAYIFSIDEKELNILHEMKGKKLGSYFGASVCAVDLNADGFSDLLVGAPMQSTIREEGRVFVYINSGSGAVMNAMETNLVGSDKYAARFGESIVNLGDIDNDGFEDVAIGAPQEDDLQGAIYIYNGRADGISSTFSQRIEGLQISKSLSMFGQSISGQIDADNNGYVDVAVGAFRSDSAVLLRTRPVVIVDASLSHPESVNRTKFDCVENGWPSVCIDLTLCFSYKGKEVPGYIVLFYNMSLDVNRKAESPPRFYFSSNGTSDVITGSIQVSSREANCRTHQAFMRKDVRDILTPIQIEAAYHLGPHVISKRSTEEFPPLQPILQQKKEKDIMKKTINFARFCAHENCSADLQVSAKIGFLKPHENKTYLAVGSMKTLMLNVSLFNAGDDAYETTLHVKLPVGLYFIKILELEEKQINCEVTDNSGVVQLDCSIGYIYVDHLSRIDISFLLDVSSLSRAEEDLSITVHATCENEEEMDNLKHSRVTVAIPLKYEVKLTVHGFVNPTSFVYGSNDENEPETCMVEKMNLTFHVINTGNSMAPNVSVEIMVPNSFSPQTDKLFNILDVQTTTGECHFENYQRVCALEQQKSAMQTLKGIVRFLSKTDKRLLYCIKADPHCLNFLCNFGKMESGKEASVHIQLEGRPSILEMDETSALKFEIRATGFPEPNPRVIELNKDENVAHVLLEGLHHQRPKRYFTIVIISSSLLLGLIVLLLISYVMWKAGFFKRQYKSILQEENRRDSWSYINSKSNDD
T1 sequence (P26010 20-798, chain 2 of 2): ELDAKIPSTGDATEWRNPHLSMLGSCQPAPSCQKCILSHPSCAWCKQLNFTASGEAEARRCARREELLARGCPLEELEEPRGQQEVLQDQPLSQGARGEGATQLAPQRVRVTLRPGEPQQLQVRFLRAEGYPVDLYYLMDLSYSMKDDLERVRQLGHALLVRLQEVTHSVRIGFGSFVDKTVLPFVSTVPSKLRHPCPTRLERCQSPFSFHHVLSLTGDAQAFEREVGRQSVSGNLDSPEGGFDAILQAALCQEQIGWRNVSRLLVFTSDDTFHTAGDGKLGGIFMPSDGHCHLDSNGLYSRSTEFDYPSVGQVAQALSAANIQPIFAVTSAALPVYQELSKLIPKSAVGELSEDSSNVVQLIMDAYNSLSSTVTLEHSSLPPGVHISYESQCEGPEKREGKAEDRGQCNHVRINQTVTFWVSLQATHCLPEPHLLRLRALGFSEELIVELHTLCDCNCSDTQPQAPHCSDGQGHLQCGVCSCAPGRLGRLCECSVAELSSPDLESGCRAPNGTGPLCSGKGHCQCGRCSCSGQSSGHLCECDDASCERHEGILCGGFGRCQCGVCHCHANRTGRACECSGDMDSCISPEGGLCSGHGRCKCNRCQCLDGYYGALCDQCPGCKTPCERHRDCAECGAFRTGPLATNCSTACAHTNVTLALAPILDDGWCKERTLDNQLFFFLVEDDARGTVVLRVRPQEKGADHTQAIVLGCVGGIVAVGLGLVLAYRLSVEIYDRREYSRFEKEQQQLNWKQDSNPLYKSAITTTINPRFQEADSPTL

[6] = target: a4(Q878R)b7 (human) (UniProt P13612); assay: as above
Chain of a4(Q878R)b7 (human) (P13612 34-1032, chain 1 of 2): as the sequence (P13612 34-1032, chain 1 of 2) above
Chain of a4(Q878R)b7 (human) (P26010 20-798, chain 2 of 2, further chain): as the sequence (P26010 20-798, chain 2 of 2) above

[7] = target: T1, human alpha4beta7; assay: KinExA, HUT78 cells expressing human alpha4beta7, lower bound of Kd
Source text: (§1) To measure cell binding affinity of human anti-alpha4beta7antibodies, a Kinetic Exclusion Assay which measures binding events in solution phase can be used to calculate the equilibrium dissociation constant, Kd. KinExA® Technology (Sapidyne Instruments, Boise, Id.) was used, substantially as described previously by Xie et. al. J. Imm, Methods 304:1 (2005) and Rathanaswami et. al. Anal. Biochem. 373:52 (2008). Briefly, HUT78 cells expressing human alpha4beta7 were titrated 1 in 3 from […] to ˜400 cells/mL and then equilibrated with a final concentration of either 2 or 30 pM of mAb 2F12 or 18A11 and 30 or 500 pM for 17C8 for 18 hours at 4° C. The free antibody remaining in the supernatant at equilibrium was measured by KinExA® technology by passing the supernatant over PMMA beads pre-coated with goat anti-human Fc and detected with goat anti-human (H+L) Cy5 (substantially as described by Rathanaswami et al. Biochem Biophys Research Commun:1004 (2005). The equilibrium dissociation constant (Kd) is obtained using KinExA® software by “n-curve analysis” which fits all of the given curves to a single Kdvalue simultaneously (Rathanswami et al. 2005 and Xie et al., supra).; results are shown below in Table 7.

[8] = target: T1, human alpha4beta7; assay: cell-based or functional assay
[9] = target: T1, human alpha4beta7; assay: FACS competition, blocks biotinylated MAdCAM-1-Fc binding to human CD4+CD45RA- memory T cells
Procedure: PBMC (fresh or frozen as described previously) are washed and resuspended in HEPES buffer (30 mM HEPES+[…]) with 1% BSA and 1 mM MnCl. to a final concentration of 10⁷cells/ml. Cells are blocked as described previously; after blocking, cells are incubated with a serial dilution of anti-alpha4beta7 antibody (or appropriate control) in 96 well plates for 30 minutes on ice, and then with 0.3 microG/ml biotinylated MAdCAM-1-Fc protein for another one hour.
After two washes in HEPES buffer with 1 mM MnCl, cells are treated with 1:100 dilution of streptavidin-PE, 4 microL CD3-Pacific Blue, CD4-PerCP-Cy5.5 and CD45RA-FITC as described previously, in a final volume of 100 microL. After one hour incubation on ice, cells are washed twice with HEPES buffer with 1 mM MnCl and then fixed in 200 microL buffer plus 0.5% paraformaldehyde. The percentage of positive MAdCAM-1-Fc binding CD4+CD45RA-memory T cells is determined by fluorescence activated cell sorter (FACS) analysis, as described previously.

[10] = target: T1, human alpha4beta7; assay: KinExA, HUT78 cells expressing human alpha4beta7, upper bound of Kd
Source text: as §1

[11] = target: a4b7(G629S) (human) (UniProt P13612); assay: FACS on transfected 293 cells, 1 microG/ml, PE anti-human IgG
[12] = target: a4(V824A)b7 (human) (UniProt P13612); assay: as above
[13] = target: a4b7(E97V) (human) (UniProt P13612); assay: as above
[14] = target: a4b7(R213S) (human) (UniProt P13612); assay: as above
[15] = target: a4(Q878R)b7 (human) (UniProt P13612); assay: as above
[16] = target: T1, human alpha4beta7; assay: as above
Source text: Point mutant constructs representing amino acid altering SNPs (a4b7(E97V); a4b7(R213S); a4b7(G629S; a4(V824A)b7; a4(Q878R)b7) in the extracellular domains of both alpha4 and beta7 were generated. Each point mutant construct was transfected to 293 cells along with the wild-type partner expression construct. Transfected 293 cells were first stained with 1 microG/ml of human IgG or anti-alpha4beta7 antibody, washed with PBS, and the stained with phycoerytherin conjugated secondary antibody goat-anti human IgG. After washing with PBS, cells were analyzed by fluorescence activated cell sorting, for example, with a FACSCalibur™ (BD Biosciences, San Jose Calif.).

[17] = target: T1, human alpha4beta7; assay: KinExA, HUT78 cells expressing human alpha4beta7, n-curve analysis
Source text: as §1

[18] = target: T1, human alpha4beta7; assay: FACS, biotinylated antibody on human CD4+CD45RA- memory T cells
Procedure: Human peripheral blood mononuclear cells (PBMC; fresh or frozen and thawed, for example in phosphate buffered saline with 2% FBS) are washed and resuspended in HEPES buffer (30 mM HEPES+[…]) with 1% BSA, with or without 1 mM MnCl₂ (depending on the experiment; Mn²⁺ is necessary for MAdCAM-1 binding) and plated into 96 well plates (10⁶cells/well). Cells are incubated with 10 microG/ml human IgG for 30 minutes on ice to block nonspecific binding. Cells are then incubated with serial dilutions of biotinylated anti-alpha4beta7 antibodies in 96 well plates for one hour on ice, followed by addition of 1:100 dilution of streptavidin-phycoerythrin (PE; Jackson ImmunoResearch Laboratories Inc., West Grove, Pa.), 4 microL CD3-Pacific Blue, CD4-PerCP-Cy5.5 and CD45RA-fluorescein isothiocyanate (FITC) (BD Biosciences, San Jose Calif.) for a final volume of 100 microL, and incubated for another hour on ice. Cells were washed twice with HEPES buffer (with or without MnCl₂, correspondingly) and then fixed in 200 microL HEPES buffer plus 0.5% paraformaldehyde (again, with or without MnCl₂, correspondingly). The percentage of positive alpha4beta7 antibody binding CD4+CD45RA-memory T cells is determined using a fluorescence activated cell sorter (FACS), for example, a BD™ LSR II benchtop flow cytometer (BD Biosciences, San Jose Calif.).

Chain of a4(V824A)b7 (human) (P13612 34-1032 V824A, chain 1 of 2): as the sequence (P13612 34-1032, chain 1 of 2) above, with V791A counted along it
Chain of a4(V824A)b7 (human) (P26010 20-798, chain 2 of 2, further chain): as the sequence (P26010 20-798, chain 2 of 2) above
Chain of a4b7(E97V) (human) (P13612 34-1032, chain 1 of 2): as the sequence (P13612 34-1032, chain 1 of 2) above
Chain of a4b7(E97V) (human) (P26010 20-798 E97V, chain 2 of 2, further chain): as the sequence (P26010 20-798, chain 2 of 2) above, with E78V counted along it
Chain of a4b7(G629S) (human) (P13612 34-1032, chain 1 of 2): as the sequence (P13612 34-1032, chain 1 of 2) above
Chain of a4b7(G629S) (human) (P26010 20-798 G629S, chain 2 of 2, further chain): as the sequence (P26010 20-798, chain 2 of 2) above, with G610S counted along it
Chain of a4b7(R213S) (human) (P13612 34-1032, chain 1 of 2): as the sequence (P13612 34-1032, chain 1 of 2) above
Chain of a4b7(R213S) (human) (P26010 20-798 R213S, chain 2 of 2, further chain): as the sequence (P26010 20-798, chain 2 of 2) above, with R194S counted along it

Molecule: human IgG (antibody)
fluorescence staining intensity (geometric mean) [1]: 7
fluorescence staining intensity (geometric mean) [2]: 7
fluorescence staining intensity (geometric mean) [3]: 7
fluorescence staining intensity (geometric mean) [4]: 7
fluorescence staining intensity (geometric mean) [5]: 8
fluorescence staining intensity (geometric mean) [6]: 7

B2: 2F12 (antibody, V domains shown)
VH: QVQLVQSGAEVKKPGASVKVSCKVSGYTVTDLSMHWVRQAPGKGLEWMGGFDPQDGETIYAQKFQGRVTMTEDTSTDTAYMELRSLRSEDTAVYYCTTESSSAWFDPWGQGTLVTVSS
VL: DIQMTQSPSSVFASVGDRVTITCRASQGISSWLAWYQQKPGKAPNLLIYGASSLQNGVPLRFSGSGSGTDFTLTISSLQPEDFATYYCQQANSFPWTFGQGTKVEIK
notes: Fully human monoclonal from XenoMouse (human IgG2 or IgG4); kappa light chain; also called 2F12K; 2F12H
Kd low [7]: 1.94 pM
HUT78 Adhesion IC50 [8]: 11.4 ng/mL
IC50 [9]: 4.6 ng/mL
Kd high [10]: 11.1 pM
fluorescence staining intensity (geometric mean) [11]: 80
fluorescence staining intensity (geometric mean) [12]: 112
fluorescence staining intensity (geometric mean) [13]: 134
fluorescence staining intensity (geometric mean) [14]: 37
fluorescence staining intensity (geometric mean) [15]: 73
fluorescence staining intensity (geometric mean) [16]: 129
Kd [17]: 4.56 pM
EC50 [18]: 3.3 ng/mL

More lines, in order of falling Kd [17], values ahead:

Kd low [7]: 12.1 pM
HUT78 Adhesion IC50 [8]: 6.8 ng/mL
IC50 [9]: 31.1 ng/mL
Kd high [10]: 74.5 pM
fluorescence staining intensity (geometric mean) [11]: 58
fluorescence staining intensity (geometric mean) [12]: 74
fluorescence staining intensity (geometric mean) [13]: 96
fluorescence staining intensity (geometric mean) [14]: 49
fluorescence staining intensity (geometric mean) [15]: 51
fluorescence staining intensity (geometric mean) [16]: 93
Kd [17]: 29.4 pM
EC50 [18]: 22.9 ng/mL
B1: 17C8 (antibody, V domains shown)
VH: QVQLVESGGGLVKPGGSLRLSCAASGFTFSDYYMSWIRQAPGKGLEWLSYISNSGSAMYYADSVKGRFTISRDNARNSLYLQMNSLRAEDTAVYYCAREYSSGWFFFESWGQGTLVTVSS
VL: EIVMTQSPATLSVSPGERATLSCRASQSVSSNLVWYQQKPGQAPRLLIYGASTRATGIPARFSGSGSGTDFTLTISSLQSEDFAVYYCQQYDDWPPLTFGGGTTVEIK
notes: Fully human monoclonal from XenoMouse (human IgG2 or IgG4); kappa light chain; also called 17C8K; 17C8H

Kd low [7]: 0.23 pM
HUT78 Adhesion IC50 [8]: 7.4 ng/mL
IC50 [9]: 7.3 ng/mL
Kd high [10]: 2.29 pM
fluorescence staining intensity (geometric mean) [11]: 63
fluorescence staining intensity (geometric mean) [12]: 82
fluorescence staining intensity (geometric mean) [13]: 105
fluorescence staining intensity (geometric mean) [14]: 30
fluorescence staining intensity (geometric mean) [15]: 56
fluorescence staining intensity (geometric mean) [16]: 92
Kd [17]: 0.9 pM
EC50 [18]: 4.7 ng/mL
B3: 18A11 (antibody, V domains shown)
VH: B2 VH with V29L, T30S, M34I, R84S, R87K, T97A, E99G, A103S
VL: B2 VL with F12S, N45K, S53N, Q55E, N56S, L60S, T85N
notes: Fully human monoclonal from XenoMouse (human IgG2 or IgG4); kappa light chain; also called 18A11K; 18A11H
